Data: the supplement of paper PMC9170038

System: MS2 coat protein
Test: apparent KD of MS2 coat protein; designed switch direction (-1 OFF switch, 1 ON switch): 1; higher = weaker reporter binding
Outline: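 Stalled E. coli RNA polymerase transcribed designed RNA switches on Illumina chips, which were then titrated with SNAP-549-labelled MS2 coat protein, doubling from 0.7 or 1.5 nM to 3 µM. Steps lasted from 0.8–1.5 h at the lowest concentration to 10–20 min at the highest. The apparent KD is each design's median over clusters of curve-fitted normalised fluorescence.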

[1] = Eterna round: R95, input ligand: FMN 200 uM
[2] = Eterna round: R95, input ligand: microRNA oligo, concentration not stated
[3] = Eterna round: R95, input ligand: none
[4] = input ligand: microRNA oligo, concentration not stated

Sequence	apparent KD of MS2 coat protein [1] [nM]	apparent KD of MS2 coat protein [2] [nM]	apparent KD of MS2 coat protein [3] [nM]	apparent KD of MS2 coat protein [4] [nM]	apparent KD of MS2 coat protein (input ligand: FMN 200 uM) [nM]	apparent KD of MS2 coat protein (input ligand: none) [nM]
AGUCCUGAAAAGAAAAUACAGAGACAUGUACAUGAGGAUCACCCAUGUCAUGUACAAGUUCUAUGCUCGUCAUAUAA [Sensorship 20 - Jieux - Sensor for hsa-mir-208a] (puzzle: Sensor for hsa-mir-208a)	22.4	15.8	21			
AGUCUACGGUGACGUAGACAGUAGUGCGUACAUGAGGAUCACCCAUGUCAUGUAAGAGUUACUUGUUCGUCUUGAAC [SENSOR #3] (puzzle: Sensor for hsa-mir-208a)	20.4	16.9	20.2			
AGUUGAAAUACAGGAUAUAUAUUAUUUUUAUUUAUAGAAGGGUAAUCACAUGAGGAUCACCCAUGUAUAUACGAGGAAGAAGAG [JMF's solution 1] (Eterna round: R96, puzzle: Same State NG 1)				182		
AUAAAACAUGAGGAUCACCCAUGUCAACAAAGUCGAGGAUAUGGGCAAAUAAAAUAAGAUCCAGAAGGCGAAUAAU [salish99_ss1_r3_016] (puzzle: Same State 1)	97.3	36.3	92.7			
AUAAAACAUGAGGAUCACCCAUGUCAACUAAGUCGAGGAUAUGGGCAAAUAAAAUAAGAACCAGAAGGCGAAUAAU [salish99_ss1_r3_041] (puzzle: Same State 1)	34.3	322	361			
AUACAAAACACAAAUACAAACAAAUACAAACAUGAGGAUCACCCAUGUGCAAUACGACUCUUUAUGGCUGGUCUUCA [Onvete] (Eterna round: R96, puzzle: Sensor for hsa-mir-208a)				60.1	87.7	107
AUACAUAUCAGAGGAUAUCACGUCGAAUAGACGUGAGAAGGCUGAUCACACAUGAAUAUUAAUACAUGAGGAUCACCCAUGUAU [SSNG1/14-A1] (Eterna round: R96, puzzle: Same State NG 1)				13.3	13.1	17.4
AUAUAUAUAAGGAAGGAUAUCUUAGAAAAAACAUGAGGAUCACCCAUGUAAAUAAAGAAUAAAUGGGAGAAGGUCCAUAUAUAUA [77%, More Tesla, 10] (Eterna round: R96, puzzle: Same State 2)				22		
AUAUUUAAUGCAGGAUAUGAUUAACAUGAGGAUCACCCAUGUGGUGUUGUGAGUAAGGAGAGUGAUCAGAAGGGCAUUUUUUUU [JMF's solution 100] (Eterna round: R96, puzzle: Same State NG 2)				322	821	467
AUGCUCGUGUGAGGAUAUGCCGCCGUUUCGGCUGCAGAAGGUGCUACGUUACAUGAGGAUCACCCAUGUCUCUGUUGUUUCGUG [salish99_SSNG1_r04_942] (Eterna round: R96, puzzle: Same State NG 1)				18.7		
AUUAAACAUGAGGAUCACCCAUGUCAACAAAGUCGAGGAUAUGGGCAAAUAAAAUAAGAACCAGAAGGCGAAUAUU [salish99_ss1_r3_080] (puzzle: Same State 1)	38.5	407	180			
AUUAAACAUGAGGAUCACCCAUGUCAACAAAGUCGAGGAUAUGGGCAUAUUAUCUUCUUUCCAGAAGGCGAAUAAU [salish99_ss1_r3_089] (puzzle: Same State 1)	431	136	404			
AUUAAACAUGAGGAUCACCCAUGUCAACUAAGUCGAGGAUAUGGGCAAAUAAAAUAAGAACCAGAAGGCGAAUAAU [salish99_ss1_r3_074] (puzzle: Same State 1)	55.9	347	260			
AUUAAGAGCGUAGGAUAUGGGAAAGGAAGUGUACCAGAAGGACGAAUACAGCGUCCGGACAUGAGGAUCACCCAUGUAGGACGG [PowerStrip SSNG 1.18] (Eterna round: R96, puzzle: Same State NG 1)				23.9	10.4	56.2
AUUACUAACAUAGGAUAUCAUGCGAAAAUUGCGUGAGAAGGGUGGACACUGUCUUUCUCGGAGUACAUGAGGAUCACCCAUGUG [SameState NG1 #68] (Eterna round: R96, puzzle: Same State NG 1)				138	564	147
AUUAUUGAUGCAGGAUAUGAUUAACAUGAGGAUCACCCAUGUGGUGUUGUGAGUAAGGAGAGUGAUCAGAAGGGCAUUUUUUUU [JMF's solution 23] (Eterna round: R96, puzzle: Same State NG 2)				435	747	436
AUUAUUUAUGCAGGAUAUGAUUAACAUGAGGAUCACCCAUGUGGUGUUGUGAGUAAGGAGAGUGAUCAGAAGGGCAUUUUUUUA [JMF's solution 56] (Eterna round: R96, puzzle: Same State NG 2)				410	476	302
AUUAUUUUUGCAGGAUAUGAUUAACAUGAGGAUCACCCAUGUGGUGUUGUGAGUAAGGAGAGUGAUCAGAAGGGCAUUUUUUUU [JMF's solution 60] (Eterna round: R96, puzzle: Same State NG 2)				410	449	315
AUUCGUUAGAUAGGAUAUCACCAUACAUGAGGAUCACCCAUGUUUACCACGCUGGUUUUUCAUACUGAGAAGGAUCUUGAUGAC [JR_SSNG2_Sub006] (Eterna round: R96, puzzle: Same State NG 2)				16.7	20.7	30
AUUGCUGUCACAGGAUAUCAUGCGGAAAUCGCGUGAGAAGGGUGGACUCUGUCAUUCACGGAGGACAUGAGGAUCACCCAUGUC [SS NG10LRO18] (Eterna round: R96, puzzle: Same State NG 1)				29	508	62.4
AUUGCUGUCACAGGAUAUCAUGCGGAAAUCGCGUGAGAAGGGUGGACUCUGUCAUUCACGGAGGACAUGAGGAUCACCCAUGUG [SS NG10LRO19] (Eterna round: R96, puzzle: Same State NG 1)				8.78	66.3	22.3
